From patent US20180163180A1, “METHOD OF ENHANCING SOMATIC CELL REPROGRAMMING WITH THE ACETYLLYSINE READER BRD3R” (THE UAB RESEARCH FOUNDATION, INC ., priority 2015, published 2018)

How the values were obtained:
[1] = tested on: BJ cells; test: Reprogramming of human fibroblasts scored by TRA-1-60+ colonies/clusters; type: cell-based; details: for reprogramming activity (TRA-1-60+ colonies): used with 3F in BJ cells, compared to OSK-GFP control
Description: Briefly (FIG. 1A), 2×10^4 of BJ cells were seeded in each well of a 24-well plates. The second day, fibroblasts were transduced with OCT4 (10 MOI), SOX2 (5 MOI), KLF4 (5 MOI) along with 250 μl of individual kinase viral supernatant freshly packaged in one well of a 6-well plate. Twenty-two cDNAs were evaluated in one 24-well plate. One well is OSK control, and one well of cells is transduced with OSK plus 250 μl of GFP viral supernatant as a second control. Virus was removed next day with fresh fibroblast medium. Forty-eight hours after transduction, fibroblasts were transferred from one well into a 60-mm dish for continued reprogramming. The next day of re-seeding, fibroblast medium was replaced with E7 medium (E8 minus TGF beta) plus 100 μM of sodium butyrate. From day 18 of reprogramming on, E8 media was used. On day 25 of reprogramming, reprogramming dishes were stained for ALP or TRA-1-60 markers.
• Concentration of virus: The reprogramming viruses (OCT4, SOX2, KLF4, MYC and BET members) were concentrated before use except for library viruses. The lentiviral supernatant was centrifuged at 3,000×g for 10 mins at 4° C. to remove the cell debris. Thirty ml of the viral supernatant was then transferred into each 50-ml tube. 7 ml of 50% PEG-6000 stock solution (final concentration of 8.5%) and 4.1 ml of 4 M NaCl stock solution was added to each tube (final concentration of 0.4 M). The virus mixture was stored at 4° C. for 3-5 h.
• Cell culture and reprogramming: Human fibroblast cells (BJ ATCC CRL-2522®) were cultured in fibroblast medium: DMEM, 10% heat-inactivated FBS, 0.1 mM 2-mercaptoethanol, 100 U/ml penicillin, 100 μg/ml streptomycin, 0.1 mM MEM NEAA and 4 ng/ml human bFGF. For reprogramming, seed BJ cells into 24-well plate at 2×10^4 cells/well. Twenty-four hours after plating, pre-mix the OSK (OCT4, 10 MOI; SOX2, 5 MOI and KLF4, 5 MOI) viruses (shown in FIGS. 6B-6D, SEQ ID NO: 58-60, respectively), and add the OSK virus along with 250 μl supernatant of individual kinase virus into respective wells. Incubate overnight. Next morning, remove viruses by replacing virus-containing medium with fresh fibroblast medium. Twenty-four hours after transduction, the cells were re-seeded from one well into one matrigel-coated 60-mm dish. Next day, replace fibroblast medium with reprogramming media (E7 plus sodium butyrate at 100 μM). On 18 day, start to use E8 media. On day 25 of reprogramming, stain the reprogramming cells for alkaline phosphatase or TRA-1-60.

[2] = molecular target: T1, tetra-acetylated H4 (H4K5/8/12/16Ac) (Homo sapiens, UniProt P62805); test: Histone peptide pull-down assay; type: binding; details: lysates of human fibroblasts overexpressing BRD3R or BRD3; western with BRD3 antibody
T1 construct: Histone tails used for peptide pull-down experiments; Peg-biotin (chemical label); incubated with lysate of human BJ fibroblasts transduced with BRD3R or BRD3 virus
Description: • Histone peptide pull-down assay: H3 or H4 histone tails with 8 different acetylation modifications were evaluated for binding with BRD3R and BRD3. One unmodified tail for each histone was used for negative control.
Human BJ fibroblasts were transduced with BRD3 or BRD3R viruses. Three days post-transduction, cells were lysed by non-denaturing lysis buffer (20 mM HEPES pH 7.9, 150 mM NaCl, 1 mM MgCl2, 0.5% NP40, 10 mM NaF, 0.2 mM NaVO4, 10 mM β-glycerol phosphate, 5% glycerol, 1 mM DTT, 1 mM PMSF and protease inhibitors). Twenty μg of the cell lysates were incubated with 1 μg biotinylated peptide in 300 μl binding buffer (50 mM Tris pH 7.5, 150 mM NaCl, 0.1% NP-40, 1 mM PMSF and protease inhibitors) at 4° C. for overnight. The next day, 30 μl of Dynabeads M-280 Streptavidin was added into each sample (Invitrogen, 11205D). The mixture of proteins, antibodies and beads were further incubated with gentle rotation at 4° C. for 1 h. The beads were then washed with binding buffer three times. The bound proteins were resuspended in 60 μl of 2× SDS sample buffer. The pull-down proteins were analyzed by western using antibody of BRD3 (Proteintech, 11859-1-AP). Two micrograms of cell lysates were loaded as input control. For semi-quantification, band density was normalized to the corresponding inputs.

[3] = tested on: BJ cells; test: Sensitivity test of the optimized small-vessel reprogramming protocol (ALP staining); type: cell-based, human; details: n=3
Description: • Optimization of screening protocol: Several strategies to make the screening of cDNA library more efficient and sensitive were used. First, the lentiviral reprogramming vector was modified so that it is more efficient and consistent in reprogramming human cells. This was achieved by using EF1a promoter and co-expression of GFP, which makes titration of viral vectors easier and faster. Second, the efficient Gateway cloning was used to transfer the human kinase library onto the modified lentiviral destination vector. 24 randomly selected of the 89 cloned cDNAs were sequenced, and verified precise cloning for all of the 24 genes. Third, a protocol to simultaneously package 24×n individual transgene viruses in individual wells of 6-well plates was established. The kinase virus was not concentrated and the supernatant directly used in screening protocol. Almost 100% of transduction of BJ cells in one well of a 24-well plate with 250 μl of supernatant using GFP reporter construct on the same destination vector (FIGS. 6J and 6K) was achieved. […] To test the sensitivity of the new screening protocols, the reprogramming activities of two established reprogramming factors: NANOG and LIN28, were evaluated. […]
Briefly (FIG. 1A), 2×10^4 of BJ cells were seeded in each well of a 24-well plates. […] Twenty-two cDNAs were evaluated in one 24-well plate. […]

[4] = tested on: BRD3R mRNA; test: Knockdown of BRD3R mRNA by shRNA (RT-qPCR); type: cell-based, human
Description: • shRNA cloning: BRD3R shRNAs at XbaI and HpaI sites on the shRNA vector PLVH-U6-EF1a-AcGFP were cloned. Correct cloning was verified by sequencing. An shRNA targeting the firefly luciferase was used as a control.
• RT-qPCR: Cells were harvested with Trizol reagent and stored at −80° C. until use. Total RNA was extracted using the Direct-zol™ Miniprep kit (R2052). cDNA was prepared using the M-MLV reverse transcriptase (cat #28025-013) per manufacturer's instruction. Quantitative PCR was performed on ViiA 7 Real-time PCR system (Applied Biosystem) using SYBR-Green Master PCR mix (Clontech, Cat #639676) in triplicates. All quantifications were normalized to an endogenous GAPDH control.

## BRD2: BET subfamily bromodomain protein
[1]
  reprogramming activity (TRA-1-60+ colonies): none did

## BRD3: canonical BRD3 (NP_031397; 726 aa, SEQ ID NO: 45), BET bromodomain protein
[1]
  reprogramming activity (TRA-1-60+ colonies): none did
[2]
  binding to H4K5/8/12/16Ac peptide: weaker than BRD3R

## NANOG: established reprogramming factor [reference compound]
[3]
  increase in reprogramming efficiency: 5.1 ×

B1: LIN28: established reprogramming factor (protein, UniProt Q9H9Z2 2-209, looked up)
Protein lin-28 homolog A: GSVSNQQFAGGCAKAAEEAPEEAPEDAARAADEPQLLHGAGICKWFNVRMGFGFLSMTARAGVALDPPVDVFVHQSKLHMEGFRSLKEGEAVEFTFKKSAKGLESIRVTGPGGVFCIGSERRPKGKSMQKRRSKGDRCYNCGGLDHHAKECKLPPQPKKCHFCQSISHMVASCPLKAQQGPSAQGKPTYFREEEEEIHSPTLLPEAQN
[3]
  increase in reprogramming efficiency: 2.4 ×

B2: BRD3R shRNA: shRNA that specifically targets BRD3R (SEQ ID NO: 42 and 43) (nucleic acid)
chain 1: CTAGGAACCTCTGTAATTGTTTCCTGGCTCGAGCCAGGAAACAATTACAGAGGTTCTTTTTT
chain 2: AAAAAAGAACCTCTGTAATTGTTTCCTGGCTCGAGCCAGGAAACAATTACAGAGGTTC
[1]; BRD3R knockdown by shRNA, TRA-1-60 staining
  impairment of reprogramming: 58%
[4]
  knockdown of BRD3R mRNA: significant knockdown
